From patent publication US20120090043A1, “TARGETS FOR RETROVIRUS ASSOCIATED DISEASES” (priority 2009, published 2012)

B1: TRAF2: human host interactor protein, Gene ID 7186, expressed from transfected ORF vector (protein)
chain: MAAASVTPPGSLELLQPGFSKTLLGTKLEAKYLCSACRNVLRRPFQAQCGHRYCSFCLASILSSGPQNCAACVHEGIYEEGISILESSSAFPDNAARREVESLPAVCPSDGCTWKGTLKEYESCHEGRCPLMLTECPACKGLVRLGEKERHLEHECPERSLSCRHCRAPCCGADVKAHHEVCPKFPLTCDGCGKKKIPREKFQDHVKTCGKCRVPCRFHAIGCLETVEGEKQQEHEVQWLREHLAMLLSSVLEAKPLLGDQSHAGSELLQRCESLEKKTATFENIVCVLNREVERVAMTAEACSRQHRLDQDKIEALSSKVQQLERSIGLKDLAMADLEQKVLEMEASTYDGVFIWKISDFARKRQEAVAGRIPAIFSPAFYTSRYGYKMCLRIYLNGDGTGRGTHLSLFFVVMKGPNDALLRWPFNQKVTLMLLDQNNREHVIDAFRPDVTSSSFQRPVNDMNIASGCPLFCPVSKMEAKNSYVRDDAIFIKAIVDLTGL
B2: TEX11: human host interactor protein, Gene ID 56159, expressed from transfected ORF vector (protein)
chain: MISAHCNLRLLCSSDSSASASQVAGTTEVVENLVTNDNSPNIPEAIDRLFSDIANINRESMAEITDIQIEEMAVNLWNWALTIGGGWLVNEEQKIRLHYVACKLLSMCEASFASEQSIQRLIMMNMRIGKEWLDAGNFLIADECFQAAVASLEQLYVKLIQRSSPEADLTMEKITVESDHFRVLSYQAESAVAQGDFQRASMCVLQCKDMLMRLPQMTSSLHHLCYNFGVETQKNNKYEESSFWLSQSYDIGKMDKKSTGPEMLAKVLRLLATNYLDWDDTKYYDKALNAVNLANKEHLSSPGLFLKMKILLKGETSNEELLEAVMEILHLDMPLDFCLNIAKLLMDHERESVGFHFLTIIHERFKSSENIGKVLILHTDMLLQRKEELLAKEKIEEIFLAHQTGRQLTAESMNWLHNILWRQAASSFEVQNYTDALQWYYYSLRFYSTDEMDLDFTKLQRNMACCYLNLQQLDKAKEAVAEAERHDPRNVFTQFYIFKIAVIEGNSERALQAIITLENILTDEESEDNDLVAERGSPTMLLSLAAQFALENGQQIVAEKALEYLAQHSEDQEQVLTAVKCLLRFLLPKIAEMPESEDKKKEMDRLLTCLNRAFVKLSQPFGEEALSLESRANEAQWFRKTAWNLAVQCDKDPVMMREFFILSYKMSQFCPSDQVILIARKTCLLMAVAVDLEQGRKASTAFEQTMFLSRALEEIQTCNDIHNFLKQTGTFSNDSCEKLLLLYEFEVRAKLNDPLLESFLESVWELPHLETKTFETIAIIAMEKPAHYPLIALKALKKALLLYKKEEPIDISQYSKCMHNLVNLSVPDGASNVELCPLEEVWGYFEDALSHISRTKDYPEMEILWLMVKSWNTGVLMFSRSKYASAEKWCGLALRFLNHLTSFKESYETQMNMLYSQLVEALSNNKGPVFHEHGYWSKSD
B3: SF3A3: human host interactor protein, Gene ID 10946, expressed from transfected ORF vector (protein)
chain: METILEQQRRYHEEKERLMDVMAKEMLTKKSTLRDQINSDHRTRAMQDRYMEVSGNLRDLYDDKDGLRKEELNAISGPNEFAEFYNRLKQIKEFHRKHPNEICVPMSVEFEELLKARENPSEEAQNLVEFTDEEGYGRYLDLHDCYLKYINLKASEKLDYITYLSIFDQLFDIPKERKNAEYKRYLEMLLEYLQDYTDRVKPLQDQNELFGKIQAEFEKKWENGTFPGWPKETSSALTHAGAHLDLSAFSSWEELASLGLDRLKSALLALGLKCGGTLEERAQRLFSTKGKSLESLDTSLFAKNPKSKGTKRDTERNKDIAFLEAQIYEYVEILGEQRHLTHENVQRKQARTGEEREEEEEEQISESESEDEENEIIYNPKNLPLGWDGKPIPYWLYKLHGLNINYNCEICGNYTYRGPKAFQRHFAEWRHAHGMRCLGIPNTAHFANVTQIEDAVSLWAKLKLQKASERWQPDTEEEYEDSSGNVVNKKTYEDLKRQGLL
B4: TRIP6: human host interactor protein, Gene ID 7205, expressed from transfected ORF vector (protein)
chain: MSGPTWLPPKQPEPARAPQGRAIPRGTPGPPPAHGAALQPHPRVNFCPLPSEQCYQAPGGPEDRGPAWVGSHGVLQHTQGLPADRGGLRPGSLDAEIDLLSSTLAELNGGRGHASRRPDRQAYEPPPPPAYRTGSLKPNPASPLPASPYGGPTPASYTTASTPAGPAFPVQVKVAQPVRGCGPPRRGASQASGPLPGPHFPLPGRGEVWGPGYRSQREPGPGAKEEAAGVSGPAGRGRGGEHGPQVPLSQPPEDELDRLTKKLVHDMNHPPSGEYFGQCGGCGEDVVGDGAGVVALDRVFHVGCFVCSTCRAQLRGQHFYAVERRAYCEGCYVATLEKCATCSQPILDRILRAMGKAYHPGCFTCVVCHRGLDGIPFTVDATSQIHCIEDFHRKFAPRCSVCGGAIMPEPGQEETVRIVALDRSFHIGCYKCEECGLLLSSEGECQGCYPLDGHILCKACSAWRIQELSATVTTDC
B5: SP100: human host interactor protein, Gene ID 6672, expressed from transfected ORF vector (protein)
chain: MAGGGGDLSTRRLNECISPVANEMNHLPAHSHDLQRMFTEDQGVDDRLLYDIVFKHFKRNKVEISNAIKKTFPFLEGLRDRDLITNKMFEDSQDSCRNLVPVQRVVYNVLSELEKTFNLPVLEALFSDVNMQEYPDLIHIYKGFENVIHDKLPLQESEEEEREERSGLQLSLEQGTGENSFRSLTWPPSGSPSHAGTTPPENGLSEHPCETEQINAKRKDTTSDKDDSLGSQQTNEQCAQKAEPTESCEQIAVQVNNGDAGREMPCPLPCDEESPEAELHNHGIQINSCSVRLVDIKKEKPFSNSKVECQAQARTHHNQASDIIVISSEDSEGSTDVDEPLEVFISAPRSEPVINNDNPLESNDEKEGQEATCSRPQIVPEPMDFRKLSTFRESFKKRVIGQDHDFSESSEEEAPAEASSGALRSKHGEKAPMTSRSTSTWRIPSRKRRFSSSDFSDLSNGEELQETCSSSLRRGSGSQPQEPENKKCSCVMCFPKGVPRSQEARTESSQASDMMDTMDVENNSTLEKHSGKRRKKRRHRSKVNGLQRGRKKDRPRKHLTLNNKVQKKRWQQRGRKANTRPLKRRRKRGPRIPKDENINFKQSELPVTCGEVKGTLYKERFKQGTSKKCIQSEDKKWFTPREFEIEGDRGASKNWKLSIRCGGYTLKVLMENKFLPEPPSTRKKRILESHNNTLVDPCEEHKKKNPDASVKFSEFLKKCSETWKTIFAKEKGKFEDMAKADKAHYEREMKTYIPPKGEKKKKFKDPNAPKRPPLAFFLFCSEYRPKIKGEHPGLSIDDVVKKLAGMWNNTAAADKQFYEKKAAKLKEKYKKDIAAYRAKGKPNSAKKRVVKAEKSKKKKEEEEDEEDEQEEENEEDDDK
B6: SPAG5: human host interactor protein, Gene ID 10615, expressed from transfected ORF vector (protein)
chain: MWRVKKLSLSLSPSPQTGKPSMRTPLRELTLQPGALTNSGKRSPACSSLTPSLCKLGLQEGSNNSSPVDFVNNKRTDLSSEHFSHSSKWLETCQHESDEQPLDPIPQISSTPKTSEEAVDPLGNYMVKTIVLVPSPLGQQQDMIFEARLDTMAETNSISLNGPLRTDDLVREEVAPCMGDRFSEVAAVSEKPIFQESPSHLLEESPPNPCSEQLHCSKESLSSRTEAVREDLVPSESNAFLPSSVLWLSPSTALAADFRVNHVDPEEEIVEHGAMEEREMRFPTHPKESETEDQALVSSVEDILSTCLTPNLVEMESQEAPGPAVEDVGRILGSDTESWMSPLAWLEKGVNTSVMLENLRQSLSLPSMLRDAAIGTTPFSTCSVGTWFTPSAPQEKSTNTSQTGLVGTKHSTSETEQLLCGRPPDLTALSRHDLEDNLLSSLVILEVLSRQLRDWKSQLAVPHPETQDSSTQTDTSHSGITNKLQHLKESHEMGQALQQARNVMQSWVLISKELISLLHLSLLHLEEDKTTVSQESRRAETLVCCCFDLLKKLRAKLQSLKAEREEARHREEMALRGKDAAEIVLEAFCAHASQRISQLEQDLASMREFRGLLKDAQTQLVGLHAKQEELVQQTVSLTSTLQQDWRSMQLDYTTWTALLSRSRQLTEKLTVKSQQALQERDVAIEEKQEVSRVLEQVSAQLEECKGQTEQLELENSRLATDLRAQLQILANMDSQLKELQSQHTHCAQDLAMKDELLCQLTQSNEEQAAQWQKEEMALKHMQAELQQQQAVLAKEVRDLKETLEFADQENQVAHLELGQVECQLKTTLEVLRERSLQCENLKDTVENLTAKLASTIADNQEQDLEKTRQYSQKLGLLTEQLQSLTLFLQTKLKEKTEQETLLLSTACPPTQEHPLPNDRTFLGSILTAVADEEPESTPVPLLGSDKSAFTRVASMVSLQPAETPGMEESLAEMSIMTTELQSLCSLLQESKEEAIRTLQRKICELQARLQAQEEQHQEVQKAKEADIEKLNQALCLRYKNEKELQEVIQQQNEKILEQIDKSGELISLREEVTHLTRSLRRAETETKVLQEALAGQLDSNCQPMATNWIQEKVWLSQEVDKLRVMFLEMKNEKEKLMIKFQSHRNILEENLRRSDKELEKLDDIVQHIYKTLLSIPEVVRGCKELQGLLEFLS
B7: C16orf33: human host interactor protein, Gene ID 79622, expressed from transfected ORF vector (protein)
chain: MDVFQEGLAMVVQDPLLCDLPIQVTLEEVNSQIALEYGQAMTVRVCKMDGEVMPVVVVQSATVLDLKKAIQRYVQLKQEREGGIQHISWSYVWRTYHLTSAGEKLTEDRKKLRDYGIRNRDEVSFIKKLRQK

These molecules were tested on HIV-1 LTR promoter transactivation by HIV-1 Tat (assay: Transactivation assay, HIV-1 LTR luciferase reporter with HIV-1 Tat). Conditions: HEK293 cells co-transfected with pHIV1LTR-Luc, HIV-1 Tat and the human ORF; relative luciferase activity 24 h post-transfection; positive if >=2 or <=0.5 and p<0.05.
Format: cell-based
Excerpt: The plasmids pHIV1LTR-Luc or pHTLV1LTR-Luc containing a luciferase reporter gene under the control of the HIV-1 or HTLV-1 LTR promoters and plasmids expressing either HIV-1 Tat or HTLV-1 Tax and each human ORF found to interact with viral proteins were transfected into 10^4 HEK293 cells using the calcium phosphate method. Twenty-four hours post-transfection, cells were washed three times with PBS, lysed and luciferase activities determined from two independent transfection experiments in triplicate. We computed a paired t-test to assess the difference of the means between samples with and without the human interactor. For a trial to be considered positive, the relative luciferase activities has to be >=2 or <=0.5, and the p-value of the t-test<0.05.
Many HIV/HTLV-human interactions in our data set (130/212) involved the retroviral transactivator proteins HTLV-1 Tax (57/212), HTLV-2 Tax2 (49/212), HIV-1 Tat (10/212) and HIV-2 Tat (14/212). Human proteins interacting with viral transactivators likely influence Tat or Tax transactivation. Expression vectors encoding human ORFs and HIV-1 Tat or HTLV-1 Tax proteins were tested in a transactivation reporter assay against reporter plasmids harboring HIV-1 or HTLV-1 viral promoter sequences cloned upstream of the luciferase reporter gene. In the controls Tat or Tax respectively activated HIV or HTLV LTR-directed gene expression. Co-transfection of interacting human ORFs identified 71 proteins (54% of the 131 human targets in our data set) that regulated HIV (26.7% of targets), HTLV (37.4% of targets) or both (9.9% of targets) LTR promoter activation by Tat or Tax (see Tables 7 and 8; Table 13 below containing quantitative data on the regulation of transactivation). Wherever not expressly specified, constructs used herein were generally made by sub-cloning entry clones from the ORFeome V3.1 into suitable destination vectors.
With B1 the HIV_LTR transactiv. was 0.22 fold change. In the case of B2, the HIV_LTR transactiv. is reported as 4.41 fold change. Molecule B3 has an HIV_LTR transactiv. of 0.49 fold change. In the case of B4, the HIV_LTR transactiv. is reported as 2.87 fold change. With B5 the HIV_LTR transactiv. was 3.69 fold change. With B6 the HIV_LTR transactiv. was 0.16 fold change. For B7, the HIV_LTR transactiv. was 2.50 fold change.
